Source: patent EP4714976A1 (Sunshine Lake Pharma Co., Ltd., dated 2026)

How the values were obtained:
[1] = biological target: T1, human FGFR2b (Kaixia Biotechnology, catalog number FGR-HM1BB) (human, UniProt P21802-3 22-378); test: BLI, antibody on AHC2 sensor
T1 construct: extracellular domain; bought; also called hFGFR2b; human FGFR2b protein

FGFR2b on KATO III cells = biological target: T2, FGFR2b on KATO III cells (human, UniProt P21802-3 22-822); test: flow cytometry, KATO III cells
T2 construct: whole, on cells; also called KATO III cells that overexpress FGFR2b
T2 sequence (P21802 other isoform, or with tags, fused parts or gaps): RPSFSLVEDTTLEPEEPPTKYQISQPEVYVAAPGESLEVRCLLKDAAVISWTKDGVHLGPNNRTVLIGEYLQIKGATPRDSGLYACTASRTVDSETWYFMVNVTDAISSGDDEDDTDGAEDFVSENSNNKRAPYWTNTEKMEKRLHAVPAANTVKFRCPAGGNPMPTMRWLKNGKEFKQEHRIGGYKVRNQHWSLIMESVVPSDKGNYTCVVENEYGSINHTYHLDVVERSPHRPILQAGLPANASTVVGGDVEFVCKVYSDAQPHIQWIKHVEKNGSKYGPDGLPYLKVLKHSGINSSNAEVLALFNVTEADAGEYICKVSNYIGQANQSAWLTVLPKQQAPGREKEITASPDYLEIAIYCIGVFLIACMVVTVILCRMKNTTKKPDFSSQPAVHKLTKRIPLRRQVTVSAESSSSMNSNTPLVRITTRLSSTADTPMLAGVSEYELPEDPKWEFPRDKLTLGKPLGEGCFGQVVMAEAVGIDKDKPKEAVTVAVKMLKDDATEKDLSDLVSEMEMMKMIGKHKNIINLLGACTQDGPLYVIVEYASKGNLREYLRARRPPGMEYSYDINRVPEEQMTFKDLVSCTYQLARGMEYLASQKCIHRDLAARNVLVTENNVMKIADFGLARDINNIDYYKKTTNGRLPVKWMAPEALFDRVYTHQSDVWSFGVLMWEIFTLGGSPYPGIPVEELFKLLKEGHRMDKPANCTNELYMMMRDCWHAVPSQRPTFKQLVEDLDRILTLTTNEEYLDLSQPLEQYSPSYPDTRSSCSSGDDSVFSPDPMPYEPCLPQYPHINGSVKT

T1 sequence (P21802 other isoform, or with tags, fused parts or gaps): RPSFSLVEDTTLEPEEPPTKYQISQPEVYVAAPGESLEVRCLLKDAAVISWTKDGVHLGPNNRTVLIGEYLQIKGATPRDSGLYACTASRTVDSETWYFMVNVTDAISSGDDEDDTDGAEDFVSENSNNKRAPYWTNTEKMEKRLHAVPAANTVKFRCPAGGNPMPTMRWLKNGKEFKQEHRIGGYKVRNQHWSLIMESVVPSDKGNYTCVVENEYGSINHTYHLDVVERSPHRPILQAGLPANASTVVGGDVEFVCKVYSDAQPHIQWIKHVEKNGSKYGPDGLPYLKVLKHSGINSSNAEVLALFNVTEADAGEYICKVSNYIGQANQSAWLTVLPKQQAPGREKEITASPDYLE

Binder | Kd [1] [nM] | koff [1] [s⁻¹] | kon [1] [M⁻¹ s⁻¹] | EC50 (FGFR2b on KATO III cells) [µg/mL]
3H9-VH1-VL1 (antibody, human IgG1, kappa, V domains shown, humanized IgG1) VH: QVQLVQSGAEVKKPGASVKVSCKASGYTFTFYNMHWVRQAPGQGLEWIGLIYPDNGDTSYNQKFKGRATLTADTSTSTVYMELSSLRSEDTAVYYCARGGLDYWGQGTTVTVSS VL: DIQMTQSPSSLSASVGDRVTITCRASENIYSNLAWYQQKPGKSPKLLIYAATNLADGVPSRFSGSGSGTDYTLTISSLQPEDFATYYCQHFWGTPYTFGGGTKVEIKR | 8.5 | 0.00241 | 284000 | 0.379
3H9-VH0-VL3 (antibody, human IgG1, kappa, humanized IgG1) heavy: not shown light: DIQMTQSPSSLSASVGDRVTITCRASENIYSNLAWYQQKPGKSPKLLVYAATNLADGVPSRFSGSGSGTDYTLTISSLQPEDFATYYCQHFWGTPYTFGGGTKLEIKRTVAAPSVFIFPPSDEQLKSGTASVVCLLNNFYPREAKVQWKVDNALQSGNSQESVTEQDSKDSTYSLSSTLTLSKADYEKHKVYACEVTHQGLSSPVTKSFNRGEC | 5.09 | 0.00186 | 366000 | 0.469
3H9-VH3-VL0 (antibody, human IgG1, kappa, V domains shown, humanized IgG1) VH: QVQLVQSGAEVKKPGASVKVSCKASGYTFSFYNMHWVKQAPGQGLEWIGLIYPDNGDTSYNQKFKGRATLTADTSTSTVYMELSSLRSEDTAVYYCARGGLDYWGQGTTVTVSS VL: DIQMTQSPSSLSASVGDRVTITCRASENIYSNLAWYQQKPGKAPKLLIYAATNLADGVPSRFSGSGSGTDFTLTISSLQPEDFATYYCQHFWGTPYTFGGGTKVEIKR | 3.13 | 0.000935 | 299000 | 0.437
3H9-VH2-VL2 (antibody, human IgG1, kappa, humanized IgG1) heavy: not shown light: DIQMTQSPSSLSASVGDRVTITCRASENIYSNLAWYQQKPGKSPKLLVYAATNLADGVPSRFSGSGSGTDYTLTISSLQPEDFATYYCQHFWGTPYTFGGGTKVEIKRTVAAPSVFIFPPSDEQLKSGTASVVCLLNNFYPREAKVQWKVDNALQSGNSQESVTEQDSKDSTYSLSSTLTLSKADYEKHKVYACEVTHQGLSSPVTKSFNRGEC | 1.9 | 0.000784 | 412000 | 0.337
3H9-VH1-VL3 (antibody, human IgG1, kappa, humanized IgG1) heavy: not shown light: DIQMTQSPSSLSASVGDRVTITCRASENIYSNLAWYQQKPGKSPKLLVYAATNLADGVPSRFSGSGSGTDYTLTISSLQPEDFATYYCQHFWGTPYTFGGGTKLEIKRTVAAPSVFIFPPSDEQLKSGTASVVCLLNNFYPREAKVQWKVDNALQSGNSQESVTEQDSKDSTYSLSSTLTLSKADYEKHKVYACEVTHQGLSSPVTKSFNRGEC | 5.05 | 0.00254 | 503000 | 0.215
3H9-VH2-VL0 (antibody, human IgG1, kappa, V domains shown, humanized IgG1) VH: QVQLVQSGAEVKKPGASVKVSCKASGYTFSFYNMHWVRQAPGQGLEWIGLIYPDNGDTSYNQKFKGRATLTADTSTSTVYMELSSLRSEDTAVYYCARGGLDYWGQGTTVTVSS VL: DIQMTQSPSSLSASVGDRVTITCRASENIYSNLAWYQQKPGKAPKLLIYAATNLADGVPSRFSGSGSGTDFTLTISSLQPEDFATYYCQHFWGTPYTFGGGTKVEIKR | 2.64 | 0.00125 | 473000 | 0.332

Now from value to binder:

Kd [1] [nM] | koff [1] [s⁻¹] | kon [1] [M⁻¹ s⁻¹] | EC50 (FGFR2b on KATO III cells) [µg/mL] | Binder
1.37 | 0.000788 | 575000 | 0.212 | 3H9-VH2-VL3 (antibody, human IgG1, kappa, humanized IgG1) heavy: not shown light: DIQMTQSPSSLSASVGDRVTITCRASENIYSNLAWYQQKPGKSPKLLVYAATNLADGVPSRFSGSGSGTDYTLTISSLQPEDFATYYCQHFWGTPYTFGGGTKLEIKRTVAAPSVFIFPPSDEQLKSGTASVVCLLNNFYPREAKVQWKVDNALQSGNSQESVTEQDSKDSTYSLSSTLTLSKADYEKHKVYACEVTHQGLSSPVTKSFNRGEC
0.614 | 0.000324 | 527000 | 0.357 | 3H9-VH3-VL1 (antibody, human IgG1, kappa, V domains shown, humanized IgG1) VH: QVQLVQSGAEVKKPGASVKVSCKASGYTFSFYNMHWVKQAPGQGLEWIGLIYPDNGDTSYNQKFKGRATLTADTSTSTVYMELSSLRSEDTAVYYCARGGLDYWGQGTTVTVSS VL: DIQMTQSPSSLSASVGDRVTITCRASENIYSNLAWYQQKPGKSPKLLIYAATNLADGVPSRFSGSGSGTDYTLTISSLQPEDFATYYCQHFWGTPYTFGGGTKVEIKR
6.51 | 0.00301 | 463000 | 0.336 | 3H9-VH0-VL0 (antibody, human IgG1, kappa, V domains shown, humanized IgG1) VH: QVQLVQSGAEVKKPGASVKVSCKASGYTFTFYNMHWVRQAPGQGLEWMGLIYPDNGDTSYNQKFKGRATLTADTSTSTVYMELSSLRSEDTAVYYCARGGLDYWGQGTTVTVSS VL: DIQMTQSPSSLSASVGDRVTITCRASENIYSNLAWYQQKPGKAPKLLIYAATNLADGVPSRFSGSGSGTDFTLTISSLQPEDFATYYCQHFWGTPYTFGGGTKVEIKR
